This note sets out measurements from patent US6124449, “High affinity TGFβ nucleic acid ligands and inhibitors” (NeXstar Pharmaceuticals, Inc.).

Data set [1] addresses T1, TGF-beta1 (hTGF-beta1) (Homo sapiens, UniProt P01137 P01137:279-390). The experiment in a line: filter; biphasic; Kd1 2.82±1.7 nM. The note with it: tags: R&D Systems; biotinylated form (NFTG0) used for BIAcore; chain copies: 2.
Data set [2] deals with T1, TGF-beta1 (hTGF-beta1). The experiment in a line: filter; biphasic; Kd1 4.6±0.7 nM. The note with it: tags: R&D Systems; biotinylated form (NFTG0) used for BIAcore; chain copies: 2.
For data set [3], the target named is T1, TGF-beta1 (hTGF-beta1). The experiment in a line: cell_activity; MLEC growth suppression reversal. The following applies: tags: R&D Systems; biotinylated form (NFTG0) used for BIAcore; chain copies: 2; label: 5'-biotin for BIAcore specificity; proposed double pseudoknot. As to the method: Cells were plated at 10^5/mL in 96-well plates in MEM, 10 mM HEPES and 0.2% FBS. Following 4 hours of incubation at 37° C., when cells appeared to attach to the well surface, TGFβ1 was added at 2 pM with or without TGFβ1 ligands that ranged from 0.1 nM to 1 µM. In a second assay performed in order to determine cross-species reactivity, rather than using hTGFβ, a conditioned serum-free medium (CM) was used. CM was conditioned by culturing it in murine 3T3 fibroblast for 48 hours. Before use, this conditioned medium was heat treated at 80° C. for 10 minutes to activate the 3T3 cell derived TGFβ and then it was diluted to 50% and supplemented with 0.2% murine serum. In each assay, hTGFβ1 (or CM) was diluted appropriately in MEM and FBS (0.2% or murine serum) and the ligands were diluted in MEM. TGFβ1 (or CM) and ligand dilutions at 10× the final concentration were premixed at equal volumes and then were added to the cells. […] After incubation, the cells were washed and harvested with SKATRON filtering units and ^3H-thymidine incorporation in cellular DNA was quantitated by scintillation counting in Ecoscint. Data were plotted and analyzed as described in Park et al. (1990) J. Exp. Med. 171:1073) and Dower et al. (1984) J. Immunol.
(Surface plasmon resonance follows binding to a sensor surface in real time, without labels.)

The target in data set [4] is T1, TGF-beta1 (hTGF-beta1). The experiment in a line: filter; biphasic; Kd1 11.5±2.0 nM. The following applies: tags: R&D Systems; biotinylated form (NFTG0) used for BIAcore; chain copies: 2.
For data set [5], the target named is T1, TGF-beta1 (hTGF-beta1). The experiment in a line: filter; biphasic; Kd1 3.8±0.9 nM. The note with it: tags: R&D Systems; biotinylated form (NFTG0) used for BIAcore; chain copies: 2.
In data set [6] the target is T1, TGF-beta1 (hTGF-beta1). The experiment in a line: filter; biphasic; Kd1 13.9±4.3 nM. The following applies: tags: R&D Systems; biotinylated form (NFTG0) used for BIAcore; chain copies: 2.
For data set [7], the target named is T1, TGF-beta1 (hTGF-beta1). The experiment in a line: cell_activity; MLEC assay. The note with it: tags: R&D Systems; biotinylated form (NFTG0) used for BIAcore; chain copies: 2. As to the method: Cells were plated at 10^5/mL in 96-well plates in MEM, 10 mM HEPES and 0.2% FBS. Following 4 hours of incubation at 37° C., when cells appeared to attach to the well surface, TGFβ1 was added at 2 pM with or without TGFβ1 ligands that ranged from 0.1 nM to 1 µM. In a second assay performed in order to determine cross-species reactivity, rather than using hTGFβ, a conditioned serum-free medium (CM) was used. CM was conditioned by culturing it in murine 3T3 fibroblast for 48 hours. Before use, this conditioned medium was heat treated at 80° C. for 10 minutes to activate the 3T3 cell derived TGFβ and then it was diluted to 50% and supplemented with 0.2% murine serum. In each assay, hTGFβ1 (or CM) was diluted appropriately in MEM and FBS (0.2% or murine serum) and the ligands were diluted in MEM. TGFβ1 (or CM) and ligand dilutions at 10× the final concentration were premixed at equal volumes and then were added to the cells. Following addition of the TGFβ1 (or CM)-ligand mixture, the cells were incubated for 16–18 hours prior to addition of ^3H-thymidine at 0.25 µCi per well and continued incubation for 7–8 additional hours. After incubation, the cells were washed and harvested with SKATRON filtering units and ^3H-thymidine incorporation in cellular DNA was quantitated by scintillation counting in Ecoscint. Data were plotted and analyzed as described in Park et al. (1990) J. Exp. Med. 171:1073) and Dower et al. (1984) J. Immunol.

Data set [8] concerns the target T1, TGF-beta1 (hTGF-beta1). The data set is described as follows: filter; biphasic; Kd1 14.2±4.5 nM. The following applies: tags: R&D Systems; biotinylated form (NFTG0) used for BIAcore; chain copies: 2.
Data set [9] has as its target T1, TGF-beta1 (hTGF-beta1). The data set is described as follows: filter; biphasic; Kd1 12.7±4.7 nM. The note with it: tags: R&D Systems; biotinylated form (NFTG0) used for BIAcore; chain copies: 2.
Data set [10] deals with T1, TGF-beta1 (hTGF-beta1). The experiment in a line: filter; biphasic; Kd1 12.3±2.4 nM. The note with it: tags: R&D Systems; biotinylated form (NFTG0) used for BIAcore; chain copies: 2.
Data set [11] deals with T1, TGF-beta1 (hTGF-beta1). The data set is described as follows: filter; biphasic; Kd1 7.7±1.6 nM. The following applies: tags: R&D Systems; biotinylated form (NFTG0) used for BIAcore; chain copies: 2.
Data set [12] concerns the target T1, TGF-beta1 (hTGF-beta1). The data set is described as follows: filter; biphasic; Kd1 5.0±0.6 nM. The note with it: tags: R&D Systems; biotinylated form (NFTG0) used for BIAcore; chain copies: 2.
For data set [13], the target named is T1, TGF-beta1 (hTGF-beta1). The data set is described as follows: filter; biphasic; Kd1 23±6.4 nM; labelled 30-35 in Table 4 class 7 but sequence is 30-25. The following applies: tags: R&D Systems; biotinylated form (NFTG0) used for BIAcore; chain copies: 2.
The target of data set [14] is T1, TGF-beta1 (hTGF-beta1). The data set is described as follows: filter; biphasic; Kd1 56.6 nM; P2 2.4%. The note with it: tags: R&D Systems; biotinylated form (NFTG0) used for BIAcore; chain copies: 2.
In data set [15] the target is T1, TGF-beta1 (hTGF-beta1). The experiment in a line: filter; biphasic; Kd1 4.05±1.5 nM. The note with it: tags: R&D Systems; biotinylated form (NFTG0) used for BIAcore; chain copies: 2.
Data set [16] deals with T1, TGF-beta1 (hTGF-beta1). The data set is described as follows: filter; biphasic; Kd1 6.02±1.5 nM. The following applies: tags: R&D Systems; biotinylated form (NFTG0) used for BIAcore; chain copies: 2.
In data set [17] the target is T1, TGF-beta1 (hTGF-beta1). The data set is described as follows: filter; biphasic; Kd1 20.7±13.8 nM. The following applies: tags: R&D Systems; biotinylated form (NFTG0) used for BIAcore; chain copies: 2.
Data set [18] concerns the target T1, TGF-beta1 (hTGF-beta1). The experiment in a line: filter; biphasic; Kd1 67 nM; P2 4.3%. The following applies: tags: R&D Systems; biotinylated form (NFTG0) used for BIAcore; chain copies: 2.
Data set [19] deals with T1, TGF-beta1 (hTGF-beta1). The data set is described as follows: filter; biphasic; Kd1 71.8 nM; P2 4.3%. The following applies: tags: R&D Systems; biotinylated form (NFTG0) used for BIAcore; chain copies: 2.

T1 sequence (P01137 279-390, one chain of several): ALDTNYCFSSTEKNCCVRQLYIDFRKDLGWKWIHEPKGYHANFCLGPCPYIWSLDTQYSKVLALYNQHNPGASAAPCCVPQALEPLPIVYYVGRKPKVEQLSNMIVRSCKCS

B1: 30-12,24,21,40,41 (ssRNA)
RNA: GGGAGGACGAUGCGGUGUCUAUAGCCUGAUUUUUAAUCUCUGCCGCAGACGACUCGCCCGA
modifications: 2'-F C and U
As for B1, the Kd (in general, the constant that tells how readily two partners part at equilibrium) in the data set with TGF-beta1 (hTGF-beta1) [1] is 0.0608 nM.

B2: 40-11 (ssRNA)
RNA: GGGAGGACGAUGCGGUGCCUUUAGUCUGAAUCUUCUACCAUGAUUCUCUGCCGCAGACGACUCGCCCGA
modifications: 2'-F C and U
In the case of B2, binding in the data set with TGF-beta1 (hTGF-beta1) [2] was characterised by a dissociation constant (Kd) of 0.0049 nM.

B3: 40-03 (ssRNA)
RNA: GGGAGGACGAUGCGGGGGUUAUUGGGCGUCAACAUCCCCGAUUCUUUUCACGUCCAGACGACUCGCCCGA
modifications: 2'-F C and U
Take B3: the inhibition constant (Ki) (in general, the equilibrium dissociation constant of an inhibitor or competing ligand from its target) with TGF-beta1 (hTGF-beta1) [3] was 0.4 nM.

B4: 40-39 (ssRNA)
RNA: GGGAGGACGAUGCGGUGCCUUUAGCCUAAGUUGAUCUAUUCAGCUUUCUGCCGCAGACGACUCGCCCGA
modifications: 2'-F C and U
With B4, the equilibrium dissociation constant (Kd) with TGF-beta1 (hTGF-beta1) [4] is 0.00878 nM.

B5: 40-41 (ssRNA)
RNA: GGGAGGACGAUGCGGUGCCUUUAGCCUGAGUAUACUGAUGUAUAUUCUCUGCCGCAGACGACUCGCCCGA
modifications: 2'-F C and U
As to B5, binding with TGF-beta1 (hTGF-beta1) [5] was put at a Kd of 0.0014 nM.

B6: 40-22,35 (ssRNA)
RNA: GGGAGGACGAUGCGGUUAGGGGCGUCAACACCGCUAUUACAAUUUUCGCUUCCCAGACGACUCGCCCGA
modifications: 2'-F C and U
B6 yielded a Kd with TGF-beta1 (hTGF-beta1) [6] of 0.0176 nM.

B7: 40-23 (ssRNA)
RNA: GGGAGGACGAUGCGGUUAGGGGCGUCAACACCGCUAUUACAAUCUUCGCUUCCCAGACGACUCGCCCGA
modifications: 2'-F C and U
In the data set with TGF-beta1 (hTGF-beta1) [7], B7 came in with a Ki of 0.75 nM. The dissociation constant (Kd) with TGF-beta1 (hTGF-beta1) [8] stood at 0.0156 nM.

B8: 40-24 (ssRNA)
RNA: GGGAGGACGAUGCGGUUAUGGGCGUCAACACCGCUAUUACAACUUUCGCUUUCCCAGACGACUCGCCCGA
modifications: 2'-F C and U
With B8, the affinity with TGF-beta1 (hTGF-beta1) [9], expressed as Kd, was 0.0275 nM.

B9: 40-28 (ssRNA)
RNA: GGGAGGACGAUGCGGUUAGGGGCGUCAACACCGCUAUUACAACUUUCGCCUCACCAGACGACUCGCCCGA
modifications: 2'-F C and U
For B9, in the data set with TGF-beta1 (hTGF-beta1) [10], the Kd was found to be 0.0816 nM.

B10: 40-26 (ssRNA)
RNA: GGGAGGACGAUGCGGUUAGGGGCGUCAACAUCGCUAUUACAAUCUUCGCCUUCCCAGACGACUCGCCCGA
modifications: 2'-F C and U
In the data set with TGF-beta1 (hTGF-beta1) [11], B10 showed a dissociation constant (Kd) of 0.0408 nM.

B11: 40-04 (ssRNA)
RNA: GGGAGGACGAUGCGGAUGCCUUUUGCCUUCAGGGUGUAAUUCCUUGAUCUGUCCGCAGACGACUCGCCCGA
modifications: 2'-F C and U
Regarding B11, binding with TGF-beta1 (hTGF-beta1) [12] was characterised by a dissociation constant (Kd) of 0.0014 nM.

B12: 30-25 (ssRNA)
RNA: GGGAGGACGAUGCGGUUGGCAUUGAAAGAGGCGUCAUAUGUUCGCCAGACGACUCGCCCGA
modifications: 2'-F C and U
B12 showed a Kd with TGF-beta1 (hTGF-beta1) [13] of 0.00114 nM.

B13: 30-06 (ssRNA)
RNA: GGGAGGACGAUGCGGUGCCUUUAGCUUAGGCUUUGCCUUCUGCCGCAGACGACUCGCCCGA
modifications: 2'-F C and U
With B13, the affinity with TGF-beta1 (hTGF-beta1) [14], expressed as Kd, was 0.0741 nM.

B14: 30-10 (ssRNA)
RNA: GGGAGGACGAUGCGGUGUCUUUAGCCUAGGUGAUUCCUUCUGCCGCAGACGACUCGCCCGA
modifications: 2'-F C and U
The molecule B14 registered a Kd with TGF-beta1 (hTGF-beta1) [15] of 0.0755 nM.

B15: 30-39 (ssRNA)
RNA: GGGAGGACGAUGCGGUGUCUUUAGCUUAGGUGAUUCCUUCUGCCGCAGACGACUCGCCCGA
modifications: 2'-F C and U
The molecule B15 came in with a Kd with TGF-beta1 (hTGF-beta1) [16] of 0.0325 nM.

B16: 30-35 (ssRNA)
RNA: GGGAGGACGAUGCGGUGUCUUUAGCCUAGGUGAUUCCUUCUGCCUCAGACGACUCGCCCGA
modifications: 2'-F C and U
As for B16, binding with TGF-beta1 (hTGF-beta1) [17] was characterised by a dissociation constant (Kd) of 0.224 nM.

B17: 30-17 (ssRNA)
RNA: GGGAGGACGAUGCGGUGCCUUUAGCUUAGGCUUUGCCUUCUGCCGCAGACGACUCGCCCGA
modifications: 2'-F C and U
B17 gave a Kd with TGF-beta1 (hTGF-beta1) [18] of 0.205 nM.

B18: 30-16,27,38,46 (ssRNA)
RNA: GGGAGGACGAUGCGGUGCCUUUAGCUUAGGCAUUGCCUUCUGCCGCAGACGACUCGCCCGA
modifications: 2'-F C and U
With B18, the equilibrium dissociation constant (Kd) in the data set with TGF-beta1 (hTGF-beta1) [19] was found to be 0.211 nM.
